B1: Signal peptidase complex catalytic subunit SEC11 (Saccharomyces cerevisiae), P15367 (parent)
chain: MNLRFELQKLLNVCFLFASAYMFWQGLAIATNSASPIVVVLSGSMEPAFQRGDILFLWNRNTFNQVGDVVVYEVEGKQIPIVHRVLRQHNNHADKQFLLTKGDNNAGNDISLYANKKIYLNKSKEIVGTVKGYFPQLGYITIWISENKYAKFALLGMLGLSALLGGE
partner: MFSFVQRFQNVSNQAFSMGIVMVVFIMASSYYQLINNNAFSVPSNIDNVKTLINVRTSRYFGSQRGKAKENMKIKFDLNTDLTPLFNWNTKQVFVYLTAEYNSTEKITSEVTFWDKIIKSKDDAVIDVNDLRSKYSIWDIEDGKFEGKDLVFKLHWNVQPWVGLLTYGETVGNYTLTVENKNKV

Variants of: B1
Conditions: with spc3_yeast SPC3, Q12133

Row | effect of a mutation on the interaction | Variant
1 | decreasing interaction | MNLRFELQKLLNVCFLFASAYMFWQGLAIATNSASPIVVVLSGSMEPAFQRGDILFLWNRNTFNQVGDVVVYEVEGKQIPIVHRVLRQHNNHADKQFLLTKGNNNAGNDISLYANKKIYLNKSKEIVGTVKGYFPQLGYITIWISENKYAKFALLGMLGLSALLGGE [D103N]

— IntAct's records for PubMed 10206957
